Reference: patent US20190183976A1

Key:
CXCR4 (human) = CXCR4 (human) (UniProt P61073); assay: cell-based or functional assay
CXCR4-VN (human) = CXCR4-VN (human) (UniProt P61073); assay: BiFC, U-2 OS cells, CXCR4-VN & GPCRx-VC; score=(positive cells/total cells)x100
Chain of CXCR4-VN (human) (P61073 whole entry): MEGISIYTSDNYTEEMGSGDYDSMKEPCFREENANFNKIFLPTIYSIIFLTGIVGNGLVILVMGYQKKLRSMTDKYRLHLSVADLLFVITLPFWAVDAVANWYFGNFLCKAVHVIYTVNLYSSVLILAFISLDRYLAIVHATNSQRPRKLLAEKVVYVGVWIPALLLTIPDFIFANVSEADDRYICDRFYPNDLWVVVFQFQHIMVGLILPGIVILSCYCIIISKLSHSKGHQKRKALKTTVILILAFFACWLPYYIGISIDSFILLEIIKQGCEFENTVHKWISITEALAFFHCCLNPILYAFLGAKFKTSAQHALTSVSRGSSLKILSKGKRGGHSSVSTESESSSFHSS

Chain of CXCR4 (human) (P61073 whole entry): as above
Chain of CCR5-VC, P51681 1-352 (receptor; other documents disagree on this pair) (P51681 whole entry): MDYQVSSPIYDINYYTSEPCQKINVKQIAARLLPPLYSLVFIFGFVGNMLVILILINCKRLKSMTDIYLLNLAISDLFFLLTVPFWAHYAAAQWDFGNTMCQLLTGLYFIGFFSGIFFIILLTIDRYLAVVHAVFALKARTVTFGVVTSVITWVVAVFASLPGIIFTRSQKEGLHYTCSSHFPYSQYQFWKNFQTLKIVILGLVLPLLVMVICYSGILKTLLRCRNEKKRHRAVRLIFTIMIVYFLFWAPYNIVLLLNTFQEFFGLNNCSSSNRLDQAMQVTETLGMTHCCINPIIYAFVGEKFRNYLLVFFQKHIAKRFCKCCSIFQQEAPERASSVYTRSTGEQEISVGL

Substance: 12G5 (antibody)
- IC50 of Ca2+ response; MDA-MB-231 expressing CXCR4+ADRB2; + carvedilol 10 µM; CXCL12 20 nM + salmeterol 1 µM (CXCR4 (human)): 2.78 nM
- IC50 of Ca2+ response; MDA-MB-231 expressing CXCR4+ADRB2; no carvedilol; CXCL12 20 nM + salmeterol 1 µM (CXCR4 (human)): 13.9 nM
- IC50 of Ca2+ response; MDA-MB-231 expressing CXCR4 alone; CXCL12 20 nM + salmeterol 1 µM (CXCR4 (human)): 80.2 nM

Substance: BKT140 (peptide)
- IC50 of Ca2+ response; MDA-MB-231 with CXCR4+ADCYAP1R1; CXCL12 20 nM + PACAP-38 1 nM; + M65 1 µM (CXCR4 (human)): 7.46 nM
- IC50 of Ca2+ response; MDA-MB-231 with CXCR4+ADCYAP1R1; CXCL12 20 nM + PACAP-38 1 nM; + PACAP-(6-38) 1 µM (CXCR4 (human)): 19.6 nM
- IC50 of Ca2+ response; MDA-MB-231 with CXCR4+ADCYAP1R1; CXCL12 20 nM + PACAP-38 1 nM; no ADCYAP1R1 inhibitor (CXCR4 (human)): 213 nM
- IC50 of Ca2+ response; MDA-MB-231 with CXCR4+C5AR1; CXCL12 20 nM + C5a 0.03 nM; + W54011 10 µM (CXCR4 (human)): 9.72 nM
- IC50 of Ca2+ response; MDA-MB-231 with CXCR4+C5AR1; CXCL12 20 nM + C5a 0.03 nM; no C5AR1 inhibitor (CXCR4 (human)): 118 nM
- IC50 of Ca2+ response; MDA-MB-231 with CXCR4+CALCR; CXCL12 20 nM + calcitonin 100 nM; + CT-(8-32) (salmon) 10 µM (CXCR4 (human)): 15.6 nM
- IC50 of Ca2+ response; MDA-MB-231 with CXCR4+CALCR; CXCL12 20 nM + calcitonin 100 nM; no CALCR inhibitor (CXCR4 (human)): 1040 nM

Substance: CCR5-VC, P51681 1-352 (receptor; other documents disagree on this pair)
- BiFC score (CXCR4-VN (human)): 44

Substance: TZ14011 (peptide)
- IC50 of Ca2+ response; MDA-MB-231 expressing CXCR4+ADRB2; + carvedilol 10 µM; CXCL12 20 nM + salmeterol 1 µM (CXCR4 (human)): 0.02 nM
- IC50 of Ca2+ response; MDA-MB-231 expressing CXCR4+ADRB2; no carvedilol; CXCL12 20 nM + salmeterol 1 µM (CXCR4 (human)): 17.8 nM
- IC50 of Ca2+ response; MDA-MB-231 expressing CXCR4 alone; CXCL12 20 nM + salmeterol 1 µM (CXCR4 (human)): 23.9 nM
- fold decrease of the IC50 of Ca2+ response in CXCR4-ADRB2 cells on co-treatment with carvedilol (CXCR4 (human)): 890 fold
